B1: GST-tagged PKD2 (human, wild type) expressed in 293T cells and purified with glutathione beads (protein)
chain: MATAPSYPAGLPGSPGPGSPPPPGGLELQSPPPLLPQIPAPGSGVSFHIQIGLTREFVLLPAASELAHVKQLACSIVDQKFPECGFYGLYDKILLFKHDPTSANLLQLVRSSGDIQEGDLVEVVLSASATFEDFQIRPHALTVHSYRAPAFCDHCGEMLFGLVRQGLKCDGCGLNYHKRCAFSIPNNCSGARKRRLSSTSLASGHSVRLGTSESLPCTAEELSRSTTELLPRRPPSSSSSSSASSYTGRPIELDKMLLSKVKVPHTFLIHSYTRPTVCQACKKLLKGLFRQGLQCKDCKFNCHKRCATRVPNDCLGEALINGDVPMEEATDFSEADKSALMDESEDSGVIPGSHSENALHASEEEEGEGGKAQSSLGYIPLMRVVQSVRHTTRKSSTTLREGWVVHYSNKDTLRKRHYWRLDCKCITLFQNNTTNRYYKEIPLSEILTVESAQNFSLVPPGTNPHCFEIVTANATYFVGEMPGGTPGGPSGQGAEAARGWETAIRQALMPVILQDAPSAPGHAPHRQASLSISVSNSQIQENVDIATVYQIFPDEVLGSGQFGVVYGGKHRKTGRDVAVKVIDKLRFPTKQESQLRNEVAILQSLRHPGIVNLECMFETPEKVFVVMEKLHGDMLEMILSSEKGRLPERLTKFLITQILVALRHLHFKNIVHCDLKPENVLLASADPFPQVKLCDFGFARIIGEKSFRRSVVGTPAYLAPEVLLNQGYNRSLDMWSVGVIMYVSLSGTFPFNEDEDINDQIQNAAFMYPASPWSHISAGAIDLINNLLQVKMRKRYSVDKSLSHPWLQEYQTWLDLRELEGKMGERYITHESDDARWEQFAAEHPLPGSGLPTDRDLGGACPPQDHDMQGLAERISVL
B2: GST-tagged PKD1 (human) expressed in 293T cells (protein)
chain: MSAPPVLRPPSPLLPVAAAAAAAAAALVPGSGPGPAPFLAPVAAPVGGISFHLQIGLSREPVLLLQDSSGDYSLAHVREMACSIVDQKFPECGFYGMYDKILLFRHDPTSENILQLVKAASDIQEGDLIEVVLSASATFEDFQIRPHALFVHSYRAPAFCDHCGEMLWGLVRQGLKCEGCGLNYHKRCAFKIPNNCSGVRRRRLSNVSLTGVSTIRTSSAELSTSAPDEPLLQKSPSESFIGREKRSNSQSYIGRPIHLDKILMSKVKVPHTFVIHSYTRPTVCQYCKKLLKGLFRQGLQCKDCRFNCHKRCAPKVPNNCLGEVTINGDLLSPGAESDVVMEEGSDDNDSERNSGLMDDMEEAMVQDAEMAMAECQNDSGEMQDPDPDHEDANRTISPSTSNNIPLMRVVQSVKHTKRKSSTVMKEGWMVHYTSKDTLRKRHYWRLDSKCITLFQNDTGSRYYKEIPLSEILSLEPVKTSALIPNGANPHCFEITTANVVYYVGENVVNPSSPSPNNSVLTSGVGADVARMWEIAIQHALMPVIPKGSSVGTGTNLHRDISVSISVSNCQIQENVDISTVYQIFPDEVLGSGQFGIVYGGKHRKTGRDVAIKIIDKLRFPTKQESQLRNEVAILQNLHHPGVVNLECMFETPERVFVVMEKLHGDMLEMILSSEKGRLPEHITKFLITQILVALRHLHFKNIVHCDLKPENVLLASADPFPQVKLCDFGFARIIGEKSFRRSVVGTPAYLAPEVLRNKGYNRSLDMWSVGVIIYVSLSGTFPFNEDEDIHDQIQNAAFMYPPNPWKEISHEAIDLINNLLQVKMRKRYSVDKTLSHPWLQDYQTWLDLRELECKIGERYITHESDDLRWEKYAGEQGLQYPTHLINPSASHSDTPETEETEMKALGERVSIL
B3: GST-tagged PKD3 (human) expressed in 293T cells (protein)
chain: MSANNSPPSAQKSVLPTAIPAVLPAASPCSSPKTGLSARLSNGSFSAPSLTNSRGSVHTVSFLLQIGLTRESVTIEAQELSLSAVKDLVCSIVYQKFPECGFFGMYDKILLFRHDMNSENILQLITSADEIHEGDLVEVVLSALATVEDFQIRPHTLYVHSYKAPTFCDYCGEMLWGLVRQGLKCEGCGLNYHKRCAFKIPNNCSGVRKRRLSNVSLPGPGLSVPRPLQPEYVALPSEESHVHQEPSKRIPSWSGRPIWMEKMVMCRVKVPHTFAVHSYTRPTICQYCKRLLKGLFRQGMQCKDCKFNCHKRCASKVPRDCLGEVTFNGEPSSLGTDTDIPMDIDNNDINSDSSRGLDDTEEPSPPEDKMFFLDPSDLDVERDEEAVKTISPSTSNNIPLMRVVQSIKHTKRKSSTMVKEGWMVHYTSRDNLRKRHYWRLDSKCLTLFQNESGSKYYKEIPLSEILRISSPRDFTNISQGSNPHCFEIITDTMVYFVGENNGDSSHNPVLAATGVGLDVAQSWEKAIRQALMPVTPQASVCTSPGQGKDHKDLSTSISVSNCQIQENVDISTVYQIFADEVLGSGQFGIVYGGKHRKTGRDVAIKVIDKMRFPTKQESQLRNEVAILQNLHHPGIVNLECMFETPERVFVVMEKLHGDMLEMILSSEKSRLPERITKFMVTQILVALRNLHFKNIVHCDLKPENVLLASAEPFPQVKLCDFGFARIIGEKSFRRSVVGTPAYLAPEVLRSKGYNRSLDMWSVGVIIYVSLSGTFPFNEDEDINDQIQNAAFMYPPNPWREISGEAIDLINNLLQVKMRKRYSVDKSLSHPWLQDYQTWLDLREFETRIGERYITHESDDARWEIHAYTHNLVYPKHFIMAPNPDDMEEDP
B4: Myc-tagged human CK1α immunopurified from 293T cells (protein)
chain: MASSSGSKAEFIVGGKYKLVRKIGSGSFGDIYLAINITNGEEVAVKLESQKARHPQLLYESKLYKILQGGVGIPHIRWYGQEKDYNVLVMDLLGPSLEDLFNFCSRRFTMKTVLMLADQMISRIEYVHTKNFIHRDIKPDNFLMGIGRHCNKLFLIDFGLAKKYRDNRTRQHIPYREDKNLTGTARYASINAHLGIEQSRRDDMESLGYVLMYFNRTSLPWQGLKAATKKQKYEKISEKKMSTPVEVLCKGFPAEFAMYLNYCRGLRFEEAPDYMYLRQLFRILFRTLNHQYDYTFDWTMLKQKAAQQAASSSGQGQQAQTPTGKQTDKTKSNMKGF
B5: Myc-tagged human CK1ε immunopurified from 293T cells (protein)
chain: MELRVGNKYRLGRKIGSGSFGDIYLGANIASGEEVAIKLECVKTKHPQLHIESKFYKMMQGGVGIPSIKWCGAEGDYNVMVMELLGPSLEDLFNFCSRKFSLKTVLLLADQMISRIEYIHSKNFIHRDVKPDNFLMGLGKKGNLVYIIDFGLAKKYRDARTHQHIPYRENKNLTGTARYASINTHLGIEQSRRDDLESLGYVLMYFNLGSLPWQGLKAATKRQKYERISEKKMSTPIEVLCKGYPSEFSTYLNFCRSLRFDDKPDYSYLRQLFRNLFHRQGFSYDYVFDWNMLKFGAARNPEDVDRERREHEREERMGQLRGSATRALPPGPPTGATANRLRSAAEPVASTPASRIQPAGNTSPRAISRVDRERKVSMRLHRGAPANVSSSDLTGRQEVSRIPASQTSVPFDHLGK

Target: T1, GST-IFNAR1 (wild type): bacterially expressed cytoplasmic domain of IFNAR1 fused with GST, P17181
T1 chain: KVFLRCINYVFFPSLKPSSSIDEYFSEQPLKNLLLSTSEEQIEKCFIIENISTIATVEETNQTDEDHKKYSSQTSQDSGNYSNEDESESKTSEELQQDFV

Row | Protein | in vitro phosphorylation of GST-IFNAR1 on Ser535 (immunoblot with anti-pS535) | immunokinase assay: phosphorylation of GST-IFNAR1 on Ser535
1 | B1 | GST-tagged PKD2 expressed in 293T cells and purified by pull down with glutathione beads was capable of directly phosphorylating bacterially produced GST-IFNAR1 on Ser535 in vitro | –
2 | B2 | this outcome was not seen when either PKD1 or PKD3 were used as a source of kinase | –
3 | B3 | this outcome was not seen when either PKD1 or PKD3 were used as a source of kinase | –
4 | B4 | – | both immunopurified (FIG. 55C) and bacterially produced CK1α (FIG. 55E, lane 6) also phosphorylated GST4FNAR1 on Ser535 in vitro
5 | B5 | – | immunopurified human CK18, CK1E, and protozoan parasite L-CK1 were active against IFNAR1S535 in the immunokinase assay in vitro
